# Assay results as given in patent US20240182547A1 (MOGAM INSTITUTE FOR BIOMEDICAL RESEARCH, published 2024).
# Biological target: DS-Cav1 (RSV F-protein, pre-form, in-house) (respiratory syncytial virus (RSV), UniProt P03420 26-513)
# Experiment: ELISA, coated DS-Cav1, IgG titrated
# DS-Cav1 (RSV F-protein, pre-form, in-house), sequence (P03420 26-524): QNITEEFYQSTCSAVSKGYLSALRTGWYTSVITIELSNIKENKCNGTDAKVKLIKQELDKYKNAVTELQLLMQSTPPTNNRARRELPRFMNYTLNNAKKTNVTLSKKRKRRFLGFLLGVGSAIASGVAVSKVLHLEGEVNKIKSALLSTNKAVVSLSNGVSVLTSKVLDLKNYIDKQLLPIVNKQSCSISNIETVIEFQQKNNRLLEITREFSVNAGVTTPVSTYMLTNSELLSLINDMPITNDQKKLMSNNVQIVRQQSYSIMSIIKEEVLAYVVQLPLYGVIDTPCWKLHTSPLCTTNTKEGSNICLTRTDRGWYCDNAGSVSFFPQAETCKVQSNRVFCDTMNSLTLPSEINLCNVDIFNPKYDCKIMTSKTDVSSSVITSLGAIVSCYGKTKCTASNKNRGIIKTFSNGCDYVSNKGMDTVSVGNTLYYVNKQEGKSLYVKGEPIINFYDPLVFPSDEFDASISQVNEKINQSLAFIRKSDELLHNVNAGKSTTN
row,Binder,Kd [nM]
1,"12F7 (antibody, V domains shown, IgG made in Expi293; also called #38; 38) VH: QMQLVQSGPEVKKPGSSVKVSCKASGYTFTDYGLSWVRQAPGHGLEWMGWITAYNGDTNYAQKFQDRLSVTTDISTSTAYMELRSLKSDDTAVYYCARHVFCSGDGCYSGLGSWGQGTLVTVSS VL: not shown",~0.27
2,"4H11 (antibody, V domains shown, IgG made in Expi293; also called #40; 40) VH: QVQLVQSGAEVKKPGASVKVSCKASGYTFTDYGLSWVRQAPGHGLEWMGWITAYNGDTNYAQKFQDRLSVTTDISTSTAYMELRSLKSDDTAVYYCARHVFCSGDGCYSGLGSWGQGTLVTVSS VL: not shown",~0.39
3,"#46m (antibody, V domains shown, Germline-edited (m) form of 2E8, light chain edited; IgG; also called 2E8 (modified)) VH: QVQLVQSGPEVKKPGSSVKVSCKASGYTFTDYGLSWVRQAPGHGLEWMGWITAYNGDTNYAQKFQDRLSVTTDISTSTAYMELRSLKSDDTAVYYCARHVFCSGDGCYSGLGSWGQGTLVTVSS VL: not shown",~1.26
4,"#49m (antibody, V domains shown, Germline-edited (m) form of 4H7, light chain edited; IgG; also called 4H7 (modified)) VH: QVQLVQSGAEVKKPGASVKVSCKASGYTFTDYGLSWVRQAPGHGLEWMGWITAYNGDTNYAQKFQDRLSVTTDISTSTAYMELRSLKSDDTAVYYCARHVFCSGDGCYSGLGSWGQGTLVTVSS VL: QSVLTQPPSASGAPGQRVIISCSGSSSNVGSNTVNWYQQLPGTAPKLLIYDKNERPSGVPDRFSASKSGTSSSLAIGGLRSEDEADYYCATWDDNLNGWVFGGGTKLTVLG",~1.11
5,"4G5 (antibody, V domains shown, IgG made in Expi293; also called #45; 45) VH: QVQLVQSGSEVKKPGASVKVSCKASGYTFTDYGLSWVRQAPGHGLEWMGWITAYNGDTNYAQKFQDRLSVTTDISTSTAYMELRSLKSDDTAVYYCARHVFCSGDGCYSGLGSWGQGTLVTVSS VL: not shown",~0.67
6,"#38m (antibody, V domains shown, Germline-edited (m) form of 12F7, heavy and light chain edited; IgG; also called 12F7 (modified)) VH: QVQLVQSGAEVKKPGASVKVSCKASGYTFTDYGLSWVRQAPGHGLEWMGWITAYNGDTNYAQKFQDRLSVTTDISTSTAYMELRSLKSDDTAVYYCARHVFCSGDGCYSGLGSWGQGTLVTVSS VL: not shown",~1.24
7,"#42m (antibody, V domains shown, Germline-edited (m) form of 12C10, light chain edited; IgG; also called 12C10 (modified)) VH: QVQLVQSGSEVKKPGASVKVSCKASGYTFTDYGLSWVRQAPGHGLEWMGWITAYNGDTNYAQKFQDRLSVTTDISTSTAYMELRSLKSDDTAVYYCARHVFCSGDGCYSGLGSWGQGTLVTVSS VL: not shown",~1.25
8,"2E8 (antibody, V domains shown, IgG made in Expi293; also called #46; 46) VH: QVQLVQSGPEVKKPGSSVKVSCKASGYTFTDYGLSWVRQAPGHGLEWMGWITAYNGDTNYAQKFQDRLSVTTDISTSTAYMELRSLKSDDTAVYYCARHVFCSGDGCYSGLGSWGQGTLVTVSS VL: not shown",~0.47
9,"#45m (antibody, V domains shown, Germline-edited (m) form of 4G5, light chain edited; IgG; also called 4G5 (modified)) VH: QVQLVQSGSEVKKPGASVKVSCKASGYTFTDYGLSWVRQAPGHGLEWMGWITAYNGDTNYAQKFQDRLSVTTDISTSTAYMELRSLKSDDTAVYYCARHVFCSGDGCYSGLGSWGQGTLVTVSS VL: not shown",~0.95
10,"2G3 (antibody, V domains shown, IgG made in Expi293; also called #41; 41) VH: QVQLVQSGAEVKKPGASVKVSCKASGYTFTDYGLSWVRQAPGHGLEWMGWITAYNGDTNYAQKFQDRLSVTTDISTSTAYMELRSLKSDDTAVYYCARHVFCSGDGCYSGLGSWGQGTLVTVSS VL: not shown",~2.11
11,"4E9 (antibody, V domains shown, IgG made in Expi293; also called #48; 48) VH: QVQLVQSGAEVKKPGSSVKVSCKASGYTFTDYGLSWVRQAPGHGLEWMGWITAYNGDTNYAQKFQDRLSVTTDISTSTAYMELRSLKSDDTAVYYCARHVFCSGDGCYSGLGSWGQGTLVTVSS VL: QSVLTQPPSVSGAPGQRVTISCSGSSSNVGSNTVNWYQQLPGTAPKLLIYDKNERPSGVPDRFSASKSGTSSSLAIGGLRSEDEADYYCGTWDDNLNGWVFGGGTKLTVLG",~0.7
12,"4H7 (antibody, V domains shown, IgG made in Expi293; also called #49; 49) VH: QVQLVQSGAEVKKPGASVKVSCKASGYTFTDYGLSWVRQAPGHGLEWMGWITAYNGDTNYAQKFQDRLSVTTDISTSTAYMELRSLKSDDTAVYYCARHVFCSGDGCYSGLGSWGQGTLVTVSS VL: SYELTQPPSASGAPGQRVIISCSGSSSNVGSNTVNWYQQLPGTAPKLLIYDKNERPSGVPDRFSASKSGTSSSLAIGGLRSEDEADYYCATWDDNLNGWVFGGGTKLTVLG",~2.15
13,"#50m (antibody, V domains shown, Germline-edited (m) form of 2F8, light chain edited; IgG; also called 2F8 (modified)) VH: QVQLVQSGAEVKKPGASVKVSCKASGYTFTDYGLSWVRQAPGHGLEWMGWITAYNGDTNYAQKFQDRLSVTTDISTSTAYMELRSLKSDDTAVYYCARHVFCSGDGCYSGLGSWGQGTLVTVSS VL: QSVLTQPPSASGAPGQRVIISCSGSSSNVGSNTVNWYQQLPGTAPKLLIYDKNERPSGVPDRFSASKSGTSSSLAIGGLRSEDEADYYCGTWDDNLNGWVFGGGTKLTVLG",~1.08
14,"#40m (antibody, V domains shown, Germline-edited (m) form of 4H11, light chain edited; IgG; also called 4H11 (modified)) VH: QVQLVQSGAEVKKPGASVKVSCKASGYTFTDYGLSWVRQAPGHGLEWMGWITAYNGDTNYAQKFQDRLSVTTDISTSTAYMELRSLKSDDTAVYYCARHVFCSGDGCYSGLGSWGQGTLVTVSS VL: not shown",~1.25
15,"#51m (antibody, V domains shown, Germline-edited (m) form of 3E7, heavy chain edited; IgG; also called 3E7 (modified)) VH: EVQLVQSGAEVKKPGASVKVSCKASGYTFTDYGLSWVRQAPGHGLEWMGWITAYNGDTNYAQKFQDRLSVTTDISTSTAYMELRSLKSDDTAVYYCARHVFCSGDGCYSGLGSWGQGTLVTVSS VL: QSVLTQPPSASGAPGQRVIISCSGSSSNVGSNTVNWYQQLPGTAPKLLIYDKNERPSGVPDRFSASKSGTSSSLAIGGLRSEDEADYYCGTWDDNLNGWVFGGGTKLTVLG",~1.26
16,"3E7 (antibody, V domains shown, IgG made in Expi293; also called #51; 51) VH: EVQLVESGTEVKKPGASVKVSCKASGYTFTDYGLSWVRQAPGHGLEWMGWITAYNGDTNYAQKFQDRLSVTTDISTSTAYMELRSLKSDDTAVYYCARHVFCSGDGCYSGLGSWGQGTLVTVSS VL: QSVLTQPPSASGAPGQRVIISCSGSSSNVGSNTVNWYQQLPGTAPKLLIYDKNERPSGVPDRFSASKSGTSSSLAIGGLRSEDEADYYCGTWDDNLNGWVFGGGTKLTVLG",~0.37
17,"3E8 (antibody, V domains shown, IgG made in Expi293; also called #43; 43) VH: QVQLVQSGSEVKKPGASVKVSCKASGYTFTDYGLSWVRQAPGHGLEWMGWITAYNGDTNYAQKFQDRLSVTTDISTSTAYMELRSLKSDDTAVYYCARHVFCSGDGCYSGLGSWGQGTLVTVSS VL: not shown",~0.45
18,"12C10 (antibody, V domains shown, IgG made in Expi293; also called #42; 42) VH: QVQLVQSGSEVKKPGASVKVSCKASGYTFTDYGLSWVRQAPGHGLEWMGWITAYNGDTNYAQKFQDRLSVTTDISTSTAYMELRSLKSDDTAVYYCARHVFCSGDGCYSGLGSWGQGTLVTVSS VL: not shown",~0.44
19,"#41m (antibody, V domains shown, Germline-edited (m) form of 2G3, light chain edited; IgG; also called 2G3 (modified)) VH: QVQLVQSGAEVKKPGASVKVSCKASGYTFTDYGLSWVRQAPGHGLEWMGWITAYNGDTNYAQKFQDRLSVTTDISTSTAYMELRSLKSDDTAVYYCARHVFCSGDGCYSGLGSWGQGTLVTVSS VL: not shown",~1.23
20,"4H5 (antibody, V domains shown, IgG made in Expi293) VH: EVQLVESGGGLVKPGGSLRLSCAGSGFTFSSYTMHWVRQAPGKGLEWVSSITGGSSYVDYSASVKGRFTISRDNAQSSLYLQMNSLRAEDTAVYYCARDDYGSGSYSNWFDPWGQGTLVTVSS VL: QSVLTQPPSVSGAPGQRVTISCTGSSSNIGAGYDVHWYQQLPGAAPRLLMFGNSNRPSGVPDRFSGSKSGTSASLAITGLQAEDEADYYCQSYDRSLSHVFGTGTKVTVLG",~0.23
21,"2E7 (antibody, V domains shown, IgG made in Expi293; also called #6) VH: EVQLVESGGGLVKPGGSLRLSCAGSGFTFSSYTMHWVRQAPGKGLEWVSSITGGSSYVDYSASVKGRFTISRDNAQSSLYLQMNSLRAEDTAVYYCARDDYGSGSYSNWFDPWGQGTLVTVSS VL: SYELTQPPSASGTPGQRVTISCTGSSSNIGAGYDVHWYQQLPGAAPRLLMFGNSNRPSGVPDRFSGSKSGTSASLAITGLQADDEADYYCQSYDRSLSHVFGTGTKVTVLG",~0.4
22,"9H4 (antibody, V domains shown, IgG made in Expi293; also called #52; 52) VH: QVQLVQSGGGLVQPGGSLRISCTASGFTFRNYEMNWVRQAPGKGLEWVAYISSSGSSRYYADSVKGRFTISRDNAKNSLFLQMNSLRAEDMAVYYCARTDDGSSWFVSTSSFYGMDVWGQGTTVTVSS VL: EIVLTQSPGIQSLSPGETATLSCRASESISSSYFAWYQQKPGQAPRLLIYGASSRASGIPDRFSGSGSGTDFTLTISRLEPEDFAVYYCQQYGSSPPITFGQGTRLEIKR",~0.89
23,"#52m (antibody, V domains shown, Germline-edited (m) form of 9H4, heavy chain edited; IgG; also called 9H4 (modified)) VH: QVQLVESGGGLVQPGGSLRISCTASGFTFRNYEMNWVRQAPGKGLEWVAYISSSGSSRYYADSVKGRFTISRDNAKNSLFLQMNSLRAEDMAVYYCARTDDGSSWFVSTSSFYGMDVWGQGTTVTVSS VL: EIVLTQSPGIQSLSPGETATLSCRASESISSSYFAWYQQKPGQAPRLLIYGASSRASGIPDRFSGSGSGTDFTLTISRLEPEDFAVYYCQQYGSSPPITFGQGTRLEIKR",~0.89
24,"5E9 (antibody, V domains shown, IgG made in Expi293; also called #60; 60) VH: QVQLVQSGPEVKKPGSSVKVSCKASGYTFGHYGISWVRQAPGQGLEWMAWISAYNGNTDSIQKVQGRVTMTTDTSTNTAYLELRSLRSDDTAVYYCVRDVPATGGAATADYWGQGTTVTVSS VL: DVVMTQSPLSLPVTLGQPASISCRSSQSLVFSDGNTYLSWFQQRPGQSPRRLIYKVSNRDSGVPDRFSASGSGTDFTLKISRVEADDVGVYYCMQVTHWPRTFGQGTRLEIKR",~1.31
25,"13H9 (antibody, V domains shown, IgG made in Expi293; also called #47; 47) VH: QVQLVQSGAEVKKPGASVKVSCKASGYTGYTFTDYGLSWVRQAPGHGLEWMGWITAYNGDTNYAQKFQDRLSVTTDISTSTAYMELRSLKSDDTAVYYCARHVFCSGDGCYSGLGSWGQGTLVTVSS VL: SYELIQPPSASGAPGQRVIISCSGSSSNVGSNTVNWYQQLPGTAPKLLIYDKNERPSGVPDRFSASKSGTSASLAISGLQSEDEADYYCAAWDDSLNGWVFGGGTELTVLG",~0.61
26,"#47m (antibody, V domains shown, Germline-edited (m) form of 13H9, light chain edited; IgG; also called 13H9 (modified)) VH: QVQLVQSGAEVKKPGASVKVSCKASGYTGYTFTDYGLSWVRQAPGHGLEWMGWITAYNGDTNYAQKFQDRLSVTTDISTSTAYMELRSLKSDDTAVYYCARHVFCSGDGCYSGLGSWGQGTLVTVSS VL: not shown",~0.94
